In the supplement of paper PMC10201428:
± gives the standard deviation of the averaged measurements.

Legend:
[1] = test system: VchCAST RNA-guided transposition machinery (E. coli BL21(DE3) host, lacZ target); assay: relative integration efficiency (T-RL orientation) vs wild-type transposon end (log2 (normalized fold change)); transposon end mutated: right end (5 bp flank + 75 bp right end); higher = more efficient transposition
In short: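 Relative integration efficiency is a fold change of output over input barcode abundance, normalised to reference barcodes and log-transformed. Input plasmids and genomic integration junctions were PCR-amplified and Illumina-sequenced from E. coli BL21(DE3) co-transformed with a T7-driven effector plasmid and pUC57 donor pools of 1549 left-end or 1849 right-end transposon variants. Plating was done with 0.1 mM IPTG at 37°C for 18 h, with two biological output replicates and four reference barcodes.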

[2] = test system: VchCAST RNA-guided transposition machinery (E. coli BL21(DE3) host, lacZ target); assay: relative integration efficiency (T-LR orientation) vs wild-type transposon end (log2 (normalized fold change)); transposon end mutated: right end (5 bp flank + 75 bp right end); higher = more efficient transposition
Method: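 Pooled, barcoded VchCAST (Tn6677) mini-transposon donor libraries; each variable transposon-end sequence sits in a fixed pDonor mini-transposon context (10-bp barcode and cargo not included). Left- or right-end libraries were co-transformed with pEffector (TniQ-Cascade, TnsABC, lacZ crRNA, T7, 0.1 mM IPTG) into E. coli BL21(DE3) and grown 18 h at 37 C. T-LR and T-RL junction amplicons were sequenced; output/input barcode fold change was normalised to the mean of four wild-type barcodes and log2-transformed. Two biological replicates; zero-count/undetected variants carry floor values (-10 / -15), censored here. Barcode uncoupling by PCR recombination adds noise.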

Row | Sequence | relative integration efficiency (log2) [1] | relative integration efficiency (log2) [2]
1 | ACATTTGTTGATACAACCATAAAATGATAATTACACCCATTTTATGATAATTATCACACCCATAAATTGATATTGCCTCTGATCATAGTCAGACCAACATTGCTACGACCCGTATTCGCACCGACAC | 2.79 ± 0.74 | 2.63 ± 0.56
2 | ACATTTGTTGATACAACCATAAAATGATAATTCACCCATCAATTGATAATTATCACACCCCAATTTAACTATAACGCTCTGATCATAGTCAGACCAACATTGCTACGACCCGTATTCGCACCGACAC | -3.27 ± 0.064 | -0.128 ± 0.16
3 | CACGGTGTTGATACAACCATAAAATGATAATTACACCCATAAATTGATAATTATCACACCCATAAATTGATATTGCCTCTGATCATAGTCAGACCAACATTGCTACGACCCGTATTCGCACCGACAC | -0.141 ± 0.051 | 0.107 ± 0.15
4 | ACATTTGTTGATACAACCATAAAATGATAATTACTCTGATCATAGTCAGACCAACATTGCTACCACCCATAAATTGATAATTATCACACCCATAAATTGATATTGCGACCCGTATTCGCACCGACAC | -3.63 ± 0.078 | -0.553 ± 0.016
5 | ACATTTGTTGATACAACCATAAAATGATAATTACAACCATATATTGATATCTCTCACAACCATAAAGTGATATTTACTCTGATCATAGTCAGACCAACATTGCTACGACCCGTATTCGCACCGACAC | -0.5 ± 0.27 | 0.0743 ± 0.02
6 | ACATTTGTTGATACAACCAATTTATGATAATTACACCCATAAATTGATAATTATCACACCCATAAATTGATATTGCCTCTGATCATAGTCAGACCAACATTGCTACGACCCGTATTCGCACCGACAC | -0.308 ± 0.066 | -0.66 ± 0.3
7 | ACATTTGTTGATACAACCATAAAAGGATAATTACCCCCATAAATTGATAATTATCCCACCCCATTTAACTATAACGCTCTGATCATAGTCAGACCAACATTGCTACGACCCGTATTCGCACCGACAC | -1.2 ± 0.22 | 1.78 ± 0.039
8 | CACGTTGTTGATACAACCATAAAATGATAATTACACCCATAAATTGATAATTATCACACCCATAAATTGATATTGCCTCTGATCATAGTCAGACCAACATTGCTACGACCCGTATTCGCACCGACAC | -0.27 ± 0.091 | 0.451 ± 0.3
9 | ACATTTGTTGATACACCCATAAATTGATAATTACAACCATAAAGTGATATTTATCACAACCATATATTGATATCTCCTCTGATCATAGTCAGACCAACATTGCTACGACCCGTATTCGCACCGACAC | -0.0337 ± 0.3 | 0.318 ± 0.42
10 | ACATTTGTTGATACAACCATAAAATGATAATTACCCCCATCAATTGATAATTATCACACCCAATTTAACTATAACGCTCTGATCATAGTCAGACCAACATTGCTACGACCCGTATTCGCACCGACAC | -2.23 ± 0.41 | 0.506 ± 0.048
11 | ACATTTGTTGATACAACCATTAAATGATAATTCCACCCAAATATTGATAATTATCACACCCAATTTAACTATAACGCTCTGATCATAGTCAGACCAACATTGCTACGACCCGTATTCGCACCGACAC | -1.51 ± 0.05 | 1.47 ± 0.08
12 | ACATTTGTTGATACAACCATAAAATGAGAATTACACCCATAAATTGAGAATTATCACACCCATAAATTGAGATTGCCTCTGATCATAGTCAGACCAACATTGCTACGACCCGTATTCGCACCGACAC | -1.04 ± 0.13 | -0.085 ± 0.14
13 | ACATTTGCTGATACAACCATATAATGATAATAACACCCATAAAATGATAATTATCACACCCAATTTAACTATAACGCTCTGATCATAGTCAGACCAACATTGCTACGACCCGTATTCGCACCGACAC | -2.08 ± 0.55 | 0.121 ± 0.33
14 | ACATTTGTTGATACAACCATAAAATGATACGGCCACCCATAAATTGATAATTATCACACCCATAAATTGATATTGCCTCTGATCATAGTCAGACCAACATTGCTACGACCCGTATTCGCACCGACAC | -0.7776 ± 0.00016 | -0.393 ± 0.37
15 | ACATTTGTTGATACACCCATAAATTGATATTGCCACCCATAAATTGATAATTATCACAACCATAAAGTGATATTTACTCTGATCATAGTCAGACCAACATTGCTACGACCCGTATTCGCACCGACAC | -0.75 ± 0.089 | -0.376 ± 0.6
16 | ACATTTGTTGATAAAACCATAAAATGATTTTTAGAAACCATAATCTGAAATTATCACACCCATAAATTGATATTGCCTCTGATCATAGTCAGACCAACATTGCTACGACCCGTATTCGCACCGACAC | -2.97 ± 0.17 | -2.56 ± 0.33
17 | ACATTTGTTGATACAACCATTAAATGGTAATTCCACCCAAATATTGATAATTATCACACCCAATTTAACTATAACGCTCTGATCATAGTCAGACCAACATTGCTACGACCCGTATTCGCACCGACAC | -2.19 ± 0.42 | 0.805 ± 0.3
18 | ACATTTGTTGATACAACCATAAAATGATAATTACACCCATAAATTGATAATTAAGACACCCATAAATTGATATTGCCTCTGATCATAGTCAGACCAACATTGCTACGACCCGTATTCGCACCGACAC | -0.306 ± 0.23 | -0.137 ± 0.32
19 | ACATTTGTTGATACAACCATAAAATGATAATTAATAATTATCACCCATAAATTGATAATTATCACACCCATAAATTGATATTGCCTCTGATCATAGTCAGACCAACATTGCTACGACCCGTATTCGC | -3.32 ± 0.2 | -0.503 ± 0.38
20 | ACATTTGTTTATACAACCATAAAATGATAATTACACCCATAAATTTATAATTATCACACCCAATTTAACTATAACGCTCTGATCATAGTCAGACCAACATTGCTACGACCCGTATTCGCACCGACAC | -1.89 ± 0.13 | 0.00132 ± 0.14
21 | ACATTTGTTGATACAACCATAAAGTGATATTTACACCCATAAATTGATATTGCTCACAACCATAAAGTGATATTTACTCTGATCATAGTCAGACCAACATTGCTACGACCCGTATTCGCACCGACAC | -0.237 ± 0.17 | 0.171 ± 0.15
22 | ACATTTGTTGATACAACCATAAAATGATAATTACACCCATAAAAAGATAATTATCACACCCATAAATTGATATTGCCTCTGATCATAGTCAGACCAACATTGCTACGACCCGTATTCGCACCGACAC | -0.162 ± 0.011 | -1.08 ± 0.96
23 | ACATTTGTTGATACAACCAATAAAAGATAATTACACCCATAAATTGATAATTGTGACACCGAATTTAACTATAACGCTCTGATCATAGTCAGACCAACATTGCTACGACCCGTATTCGCACCGACAC | -2 ± 0.21 | 1.26 ± 0.029
24 | ACATTTGTCGATACAACCATAAAATGATAATTACACCCATAAATGGATAATTATCACCCCCAATTTAACTATAACGCTCTGATCATAGTCAGACCAACATTGCTACGACCCGTATTCGCACCGACAC | -1.38 ± 0.18 | 1.38 ± 0.025
25 | ACATTTGTTGATACAACCATAAAATGATAATTACACCCATAAATTGATAATTATCACACCCATAAATTGATATTTAAGCTGATCATAGTCAGACCAACATTGCTACGACCCGTATTCGCACCGACAC | -0.000531 ± 0.0027 | -0.0384 ± 0.075
26 | ACATTTGTTGATACAACCATTAAATGATAATTACACCCATAAATTGATAATTGTGACACCGAATTTAACTATAACGCTCTGATCATAGTCAGACCAACATTGCTACGACCCGTATTCGCACCGACAC | -1.2 ± 0.14 | 1.99 ± 0.027
27 | ACATTTGTTCATACAACCATAAAATGATAATTACACCCATAAATGGATCATTATCACCCCCAATTTAACTATAACGCTCTGATCATAGTCAGACCAACATTGCTACGACCCGTATTCGCACCGACAC | -1.84 ± 0.28 | -0.469 ± 0.18
